Laboratory results: PMC4505066, “Insights into the Recruitment of Class IIa Histone Deacetylases (HDACs) to the SMRT/NCoR Transcriptional Repression Complex” (The Journal of Biological Chemistry, 2015)

B1: wild type GSI motif peptide (…), SMRT amino acids 1450-1469 with an amino-terminal cysteine [modified: BODIPY-TMR coupled to the N-terminal cysteine; BODIPY-TMR coupled to the N-terminal cysteine] [not stated] (parent)
chain 1: CPRPLKEGSITQGTPLKYDTG
chain 2: TKPRFTTGLVYDTLMLKHQCTCGSSSSHPEHAGRIQSIWSRLQETGLRGKCECIRGRKATLEELQTVHSEAHTLLYGTNPLNRQKLDSKKLLGSLASVFVRLPCGGVGVDSDTIWNEVHSAGAARLAVGCVVELVFKVATGELKNGFAVVRPPGHHAEESTPMGFCYFNSVAVAAKLLQQRLSVSKILIVDWDVHHGNGTQQAFYSDPSVLYMSLHRYDDGNFFPGSGAPDEVGTGPGVGFNVNMAFTGGLDPPMGDAEYLAAFRTVVMPIASEFAPDVVLVSSGFDAVEGHPTPLGGYNLSARCFGYLTKQLMGLAGGRIVLALEGGHDLTAICDASEACVSALLGNELDPLPEKVLQQRPNANAVRSMEKVMEIHSKYWRCLQRTTSTAGRSLIEAQTCENEEAETVT

Variants of: B1
Assay: fluorescence anisotropy
Conditions: with HDAC4 catalytic domain

Kd, > 1000 µM:
chain 1 CPRPLKEGSITQGSPLKYDTG [chain 1 T14S]
chain 1 CPRPLKEASITQGTPLKYDTG [chain 1 G8A]
chain 1 CPRPLKEGSITQATPLKYDTG [chain 1 G13A]
chain 1 CPRPLKEGSATQGTPLKYDTG [chain 1 I10A]
chain 1 CPRPLKEGSDTQGTPLKYDTG [chain 1 I10D]
chain 1 CPRPLKEGAITQGTPLKYDTG [chain 1 S9A]
chain 1 CPRPLKEGTITQGTPLKYDTG [chain 1 S9T]
